Source: article PMC7060329, “Pathway-specific enzymes from bamboo and crop leaves biosynthesize anti-nociceptive C-glycosylated flavones” (Communications Biology, 2020)

T1: SbF2H (CYP93G3; SbCYP93G3) (Sorghum bicolor, UniProt C5X6I4)
T1 construct: gene SORBI_3002G000400; N-terminal transmembrane region cut (borders not in text) and replaced with 2B1dH tag; codon-optimized; in E. coli with AtCPR2
T1 sequence (C5X6I4 42-541 limits assumed): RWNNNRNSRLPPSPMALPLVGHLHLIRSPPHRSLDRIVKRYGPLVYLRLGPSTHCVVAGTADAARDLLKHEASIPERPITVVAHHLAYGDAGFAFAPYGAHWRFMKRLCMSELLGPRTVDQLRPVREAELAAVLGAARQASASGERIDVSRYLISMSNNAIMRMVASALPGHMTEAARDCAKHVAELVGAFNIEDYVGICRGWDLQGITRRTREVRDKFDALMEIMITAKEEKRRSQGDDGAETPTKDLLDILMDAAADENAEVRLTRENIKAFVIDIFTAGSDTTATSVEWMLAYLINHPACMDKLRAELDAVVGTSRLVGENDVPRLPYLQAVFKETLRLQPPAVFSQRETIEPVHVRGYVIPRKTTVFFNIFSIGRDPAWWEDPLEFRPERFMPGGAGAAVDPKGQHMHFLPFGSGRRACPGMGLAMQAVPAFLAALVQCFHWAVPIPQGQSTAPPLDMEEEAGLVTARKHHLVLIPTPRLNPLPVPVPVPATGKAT

B1: PhUGT708A43 (PhCGT1) (Phyllostachys edulis) (protein)
chain: MPTSGGRTGDRPHVILLPSAGMGHLVPFSRLAVALSSGHGCDVSVVAVLPTVSAAESRHLQGLLDASPAVRRLDLHLAPFDESEFPGADPFFLRFEAMRRSAPLLGPLLADTGASALVTDIALASVVIPVAKEIHLPCYVLFTASAAMLSFCAYFPTYLDTNAGRVVGDVDIPGVYRIPKASIPQALHDPNHLFTRQFVANGQDLAKADGVLVNTFDALELEAVTALRQGSVAAGFPPVFSVGPLVTVNLPAGEAAKESGNDYMYWLDAQPAQSVVYVSFGSRKAISRDQVRELAIGLEASGQPFLWVVKSTVVDRDDSAELSELLGEGFLERVQGQGFVTKAWVEQEEVLKHESIGLFISHCGWNSVTEAAASGVPVLAWPRFGDQRVNAGVVARGGLGVWVERWSWEGEEDVVSGEEIAEKVKAVMADETVRKKAASVGEAAVKEFADGGTSYRSLTEFVRRCRDLAVLD
notes: full-length ORF, pET28a (pCZ86), recombinant from E. coli, purified

What was measured:
[1] = biological target: T1, SbF2H (CYP93G3; SbCYP93G3); assay: E. coli whole-cell conversion, LC-MS of downstream vitexin/isovitexin; format: cell-based; details: coexpressed AtCPR2 and PhUGT708A43; naringenin made in vivo, 22 °C
[2] = substrate: O=C(CCc1ccc(O)cc1)c1c(O)cc(O)cc1O; assay: HPLC of C-glucoside product, Michaelis-Menten fit; format: biochemical, Phyllostachys edulis; details: 400 μM UDP-glucose, 100 mM NaCl, 20 mM Tris-HCl pH 8.0, 37 °C, 20 min
[3] = substrate: O=C1CC(O)(c2ccc(O)cc2)Oc2cc(O)cc(O)c21; assay: HPLC of C-glucoside product, Michaelis-Menten fit; format: biochemical, Phyllostachys edulis; details: 400 μM UDP-glucose, 100 mM NaCl, 20 mM Tris-HCl pH 8.0, 37 °C, 20 min

Molecule	E. coli whole-cell conversion, LC-MS of downstream vitexin/isovitexin [1]	Km [2] [µM]	Km [3] [µM]
O=C1C[C@@H](c2ccc(O)cc2)Oc2cc(O)cc(O)c21 [Nar, naringenin]	truncated ZmF2H/AtCPR2 (sCZ2) and truncated SbF2H/AtCPR2 (sCZ29)		
B1		15.83 ± 6.98	1.75 ± 0.66
